This is an account of results in PMC8608799, “The main oxidative inactivation pathway of the plant hormone auxin” (Nature Communications, 2021).

Substrate in series [1]: O=C(O)CC[C@H](NC(=O)Cc1c[nH]c2ccccc12)C(=O)O
The series is described as follows: HPLC of oxidised product, Michaelis-Menten. The conditions noted are these: 0.5 mM 2-oxoglutarate, 2 μM Fe(II), 5 mM ascorbate, 50 mM potassium phosphate pH 7.2, 30 °C. Type of series: biochemical, Arabidopsis thaliana.

Substrate in series [2]: O=C(O)C[C@H](NC(=O)Cc1c[nH]c2ccccc12)C(=O)O
The series is described as follows: HPLC of oxidised product, Michaelis-Menten. Type of series: biochemical, Arabidopsis thaliana. The conditions noted are these: 0.5 mM 2-oxoglutarate, 2 μM Fe(II), 5 mM ascorbate, 50 mM potassium phosphate pH 7.2, 30 °C.

B1: AtDAO1 (Arabidopsis thaliana) (protein)
chain: MGELNGVIIPTIDLEEVSDKILNQKIREASERWGCFRVINHGVSLSLMAEMKKTVIDLFQRPYEVKVRNTDVLLGSGYRAPNEINPYYEALGLYDMASPHAVNTFCDQLEASADQREIMVKYAKAINGLATDLARKLAESYGLVETDFFKEWPSQFRINKYHFKPETVGKLGVQLHTDSGFLTILQDDENVGGLEAMDNSSGTFFPIDPLPNTLAINLGDMATIWSNGRLCNVKHRVQCKEATMRYSIASFLLGPMDTDLEPPSEFVDAEHPRLYKPISHEGVRNIRMTKKLHDGEALKLITHAGLDK
notes: full-length ORF in pCold I, N-terminal His tag kept, E. coli BL21, TALON purified
On to B1, for which the results for the Km in series [1] and in series [2] were 9.4 µM and 13.5 µM, respectively.

Broadly, the Km is the concentration of substrate that gives half-maximal velocity.
